In patent US20180022800A1:

Target: recombinant mouse OSM (mouse) (UniProt P53347)
Test: cell-based or functional assay

UniProt P53347, sequence (P53347 24-206 limits assumed): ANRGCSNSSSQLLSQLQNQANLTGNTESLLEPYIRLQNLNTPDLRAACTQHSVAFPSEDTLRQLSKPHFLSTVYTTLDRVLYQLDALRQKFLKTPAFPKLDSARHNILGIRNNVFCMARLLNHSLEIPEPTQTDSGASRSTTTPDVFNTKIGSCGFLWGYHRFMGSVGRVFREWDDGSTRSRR

With “O-RFP (recombinant murine OSM receptor fusion protein) (from UniProt O70458 24-426; Q00560 123-322) (Fc fusion)” the molar ratio of neutralizing agent required for 50% neutralization (SOCS3 expression in mouse colonic fibroblasts treated with 10 ng/ml recombinant mouse OSM, 2 hours) (molar ratio (neutralizing agent:OSM)) was 1.7.
